# Assay results: the supplement of paper PMC10065799, “High-throughput profiling of sequence recognition by tyrosine kinases and SH2 domains using bacterial peptide display” (eLife, 2023)
# Target: FGFR3 (UniProt P22607)
# Assay: phosphorylation enrichment, bacterial display (enrichment ratio); higher = better substrate or ligand; peptides without Tyr show the background
# 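Note: 11-residue human phosphosite peptides and single-mutation variants displayed on the E. coli surface, counted by deep sequencing, each peptide's frequency after selection divided by its frequency in the unselected input library; frequency after pTyr selection over input frequency; kinase dosed for 20-30% of maximal phosphorylation in three min.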
# FGFR3, sequence (P22607 whole entry, looked up): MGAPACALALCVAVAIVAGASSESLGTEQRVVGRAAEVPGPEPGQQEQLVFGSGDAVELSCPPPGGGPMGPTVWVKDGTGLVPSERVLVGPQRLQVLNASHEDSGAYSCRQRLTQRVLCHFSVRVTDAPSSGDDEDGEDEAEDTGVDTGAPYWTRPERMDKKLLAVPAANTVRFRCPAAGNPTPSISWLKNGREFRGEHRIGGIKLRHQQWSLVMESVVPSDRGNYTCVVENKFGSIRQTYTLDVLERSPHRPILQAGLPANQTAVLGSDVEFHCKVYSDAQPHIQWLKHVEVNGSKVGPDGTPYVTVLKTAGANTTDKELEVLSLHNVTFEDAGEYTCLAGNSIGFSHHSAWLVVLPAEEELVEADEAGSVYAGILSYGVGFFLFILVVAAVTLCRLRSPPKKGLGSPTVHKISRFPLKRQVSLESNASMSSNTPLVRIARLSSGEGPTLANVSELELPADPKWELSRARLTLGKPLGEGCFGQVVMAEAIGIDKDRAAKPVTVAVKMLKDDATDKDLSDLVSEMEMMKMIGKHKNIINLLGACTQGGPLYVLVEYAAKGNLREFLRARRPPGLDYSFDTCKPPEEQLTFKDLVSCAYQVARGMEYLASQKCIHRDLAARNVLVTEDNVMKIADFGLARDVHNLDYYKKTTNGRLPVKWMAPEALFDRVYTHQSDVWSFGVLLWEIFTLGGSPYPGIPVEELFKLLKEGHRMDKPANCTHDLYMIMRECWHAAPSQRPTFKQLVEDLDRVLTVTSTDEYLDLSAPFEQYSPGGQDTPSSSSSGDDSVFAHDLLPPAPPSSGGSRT
row,Sequence,phosphorylation enrichment
1,GGGGSYNNFGN [HNRNPA1_Y312_D314N],0.403
2,YTHSDYQYSQR [PKP2_Y166],0.507
3,MPLTKYLKRIK [CNGB3_Y200_E199K],0.488
4,KVGPGSLGSGG [RET_Y826_Y826S],0.366
5,CNPLCYPTIMI [OR6K6_Y160_R159C],0.828
6,ATHRGYDLDNP [MMUT_Y146_S148L],0.727
7,RQSHNYLGGFA [SYK_Y47_R45H],0.558
8,NGQAVYAACQT [XDH_Y1092],0.371
9,HSGLAYTMERS [GLUD1_Y512],0.543
10,LEFGDCHPLKP [VPS35L_Y32_Y32C],1.52
11,LSSNLYFRWLT [CNGA3_Y168_P163L_YF],1.51
12,RLTEGYTGPFK [ZNF862_Y181_I178T],0.456
13,ILTYKYLQKPM [KIT_Y547],0.518
14,EREYKYGAHNY [OAT_Y50],0.43
15,FRPHLYGTPSR [ADGRE2_Y670_S665F],0.511
16,DAICYYRMENA [NPHS2_Y195],6.5
17,VRFMANTDETF [F8_Y450_Y450N],0.653

row,Sequence,phosphorylation enrichment
1,ALDHKYHGGGG [HBB_Y146_A143D],0.392
2,TLKVGYTEKQR [EPHA3_Y659],0.351
3,PGVDRYSLGTS [C5orf42_Y1451],0.745
4,HGVSSYDTVIS [LDLR_Y465],0.706
5,QRCYVYYYSYL [PTEN_Y176_R173C],2.56
6,HQKKPYCHTHN [NRAP_Y53_A56T],3.53
7,INVTIYGKTFR [EFHC1_Y177_I174V],0.756
8,RRAKGYPIDLY [ITGB2_Y125],0.889
9,RKELFYKADGE [SERPINC1_Y272],0.638
10,KDGNGYISAAE [CALM1_Y100],0.594
11,SRDDYYETIAM [NPY1R_Y347_D346Y],6.01
12,PSQRRNVFFFS [PTEN_Y174_Y174N_YF],0.777
13,ALRASYTPSPA [ESS2_Y418],0.389
14,PINLFYLMDLS [ITGB2_Y131_D128N_YF],1.11
15,MKGDFYCFLAE [YWHAG_Y131_R132C_YF],1.5
16,TSPKSCPSQKH [CAP2_Y316_Y316C],0.521

# Test system: Fer (mouse)
# Assay: as above
row,Sequence,phosphorylation enrichment
1,GGGGSYNNFGN [HNRNPA1_Y312_D314N],0.378
2,YTHSDYQYSQR [PKP2_Y166],0.42
3,MPLTKYLKRIK [CNGB3_Y200_E199K],0.425
4,KVGPGSLGSGG [RET_Y826_Y826S],0.293
5,CNPLCYPTIMI [OR6K6_Y160_R159C],1.37
6,ATHRGYDLDNP [MMUT_Y146_S148L],0.413
7,RQSHNYLGGFA [SYK_Y47_R45H],0.387
8,NGQAVYAACQT [XDH_Y1092],2.4
9,HSGLAYTMERS [GLUD1_Y512],0.561
10,LEFGDCHPLKP [VPS35L_Y32_Y32C],1.24
11,LSSNLYFRWLT [CNGA3_Y168_P163L_YF],1.01
12,RLTEGYTGPFK [ZNF862_Y181_I178T],0.382
13,ILTYKYLQKPM [KIT_Y547],0.495
14,EREYKYGAHNY [OAT_Y50],0.35
15,FRPHLYGTPSR [ADGRE2_Y670_S665F],0.945
16,DAICYYRMENA [NPHS2_Y195],0.736
17,VRFMANTDETF [F8_Y450_Y450N],0.436

row,Sequence,phosphorylation enrichment
1,ALDHKYHGGGG [HBB_Y146_A143D],0.321
2,TLKVGYTEKQR [EPHA3_Y659],0.386
3,PGVDRYSLGTS [C5orf42_Y1451],0.57
4,HGVSSYDTVIS [LDLR_Y465],0.638
5,QRCYVYYYSYL [PTEN_Y176_R173C],1.22
6,HQKKPYCHTHN [NRAP_Y53_A56T],1.34
7,INVTIYGKTFR [EFHC1_Y177_I174V],0.625
8,RRAKGYPIDLY [ITGB2_Y125],0.73
9,RKELFYKADGE [SERPINC1_Y272],0.783
10,KDGNGYISAAE [CALM1_Y100],0.389
11,SRDDYYETIAM [NPY1R_Y347_D346Y],4.75
12,PSQRRNVFFFS [PTEN_Y174_Y174N_YF],0.493
13,ALRASYTPSPA [ESS2_Y418],0.367
14,PINLFYLMDLS [ITGB2_Y131_D128N_YF],0.695
15,MKGDFYCFLAE [YWHAG_Y131_R132C_YF],0.644
16,TSPKSCPSQKH [CAP2_Y316_Y316C],0.385

# Target: Fes (UniProt P07332)
# Sequence (P07332 whole entry, looked up): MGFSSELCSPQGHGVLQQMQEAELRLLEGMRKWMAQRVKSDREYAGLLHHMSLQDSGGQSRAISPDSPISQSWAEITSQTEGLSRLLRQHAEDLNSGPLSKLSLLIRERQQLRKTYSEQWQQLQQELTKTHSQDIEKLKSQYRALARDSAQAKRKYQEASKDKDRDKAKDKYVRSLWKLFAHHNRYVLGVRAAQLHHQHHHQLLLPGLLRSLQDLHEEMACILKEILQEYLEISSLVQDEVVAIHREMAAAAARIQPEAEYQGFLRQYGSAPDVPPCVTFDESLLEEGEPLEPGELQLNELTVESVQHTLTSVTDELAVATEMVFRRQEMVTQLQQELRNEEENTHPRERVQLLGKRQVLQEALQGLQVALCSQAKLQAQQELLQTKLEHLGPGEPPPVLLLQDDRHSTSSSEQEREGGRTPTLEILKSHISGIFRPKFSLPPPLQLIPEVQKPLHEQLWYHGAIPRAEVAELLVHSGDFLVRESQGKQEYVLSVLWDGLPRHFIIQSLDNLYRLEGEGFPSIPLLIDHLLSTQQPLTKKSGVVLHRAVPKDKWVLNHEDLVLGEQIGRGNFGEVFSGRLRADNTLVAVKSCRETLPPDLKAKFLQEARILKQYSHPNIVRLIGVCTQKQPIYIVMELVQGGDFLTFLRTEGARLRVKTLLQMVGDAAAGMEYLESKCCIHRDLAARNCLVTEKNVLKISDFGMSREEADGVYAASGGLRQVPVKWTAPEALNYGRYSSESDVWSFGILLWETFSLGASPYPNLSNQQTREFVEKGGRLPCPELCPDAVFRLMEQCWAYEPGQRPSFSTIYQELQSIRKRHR
# Assay: as above
row,Sequence,phosphorylation enrichment
1,GGGGSYNNFGN [HNRNPA1_Y312_D314N],0.564
2,YTHSDYQYSQR [PKP2_Y166],0.594
3,MPLTKYLKRIK [CNGB3_Y200_E199K],0.623
4,KVGPGSLGSGG [RET_Y826_Y826S],0.489
5,CNPLCYPTIMI [OR6K6_Y160_R159C],0.821
6,ATHRGYDLDNP [MMUT_Y146_S148L],0.79
7,RQSHNYLGGFA [SYK_Y47_R45H],0.65
8,NGQAVYAACQT [XDH_Y1092],0.706
9,HSGLAYTMERS [GLUD1_Y512],1.26
10,LEFGDCHPLKP [VPS35L_Y32_Y32C],1.97
11,LSSNLYFRWLT [CNGA3_Y168_P163L_YF],1.64
12,RLTEGYTGPFK [ZNF862_Y181_I178T],0.611
13,ILTYKYLQKPM [KIT_Y547],1.15
14,EREYKYGAHNY [OAT_Y50],0.558
15,FRPHLYGTPSR [ADGRE2_Y670_S665F],0.842
16,DAICYYRMENA [NPHS2_Y195],1.44
17,VRFMANTDETF [F8_Y450_Y450N],1.12

row,Sequence,phosphorylation enrichment
1,ALDHKYHGGGG [HBB_Y146_A143D],0.526
2,TLKVGYTEKQR [EPHA3_Y659],0.378
3,PGVDRYSLGTS [C5orf42_Y1451],0.973
4,HGVSSYDTVIS [LDLR_Y465],1.15
5,QRCYVYYYSYL [PTEN_Y176_R173C],2.08
6,HQKKPYCHTHN [NRAP_Y53_A56T],2.33
7,INVTIYGKTFR [EFHC1_Y177_I174V],1.29
8,RRAKGYPIDLY [ITGB2_Y125],1.29
9,RKELFYKADGE [SERPINC1_Y272],1.08
10,KDGNGYISAAE [CALM1_Y100],0.76
11,SRDDYYETIAM [NPY1R_Y347_D346Y],1.01
12,PSQRRNVFFFS [PTEN_Y174_Y174N_YF],1.23
13,ALRASYTPSPA [ESS2_Y418],0.471
14,PINLFYLMDLS [ITGB2_Y131_D128N_YF],1.98
15,MKGDFYCFLAE [YWHAG_Y131_R132C_YF],1.58
16,TSPKSCPSQKH [CAP2_Y316_Y316C],0.619

# Target: Fyn (UniProt P06241)
# Sequence (P06241 whole entry, looked up): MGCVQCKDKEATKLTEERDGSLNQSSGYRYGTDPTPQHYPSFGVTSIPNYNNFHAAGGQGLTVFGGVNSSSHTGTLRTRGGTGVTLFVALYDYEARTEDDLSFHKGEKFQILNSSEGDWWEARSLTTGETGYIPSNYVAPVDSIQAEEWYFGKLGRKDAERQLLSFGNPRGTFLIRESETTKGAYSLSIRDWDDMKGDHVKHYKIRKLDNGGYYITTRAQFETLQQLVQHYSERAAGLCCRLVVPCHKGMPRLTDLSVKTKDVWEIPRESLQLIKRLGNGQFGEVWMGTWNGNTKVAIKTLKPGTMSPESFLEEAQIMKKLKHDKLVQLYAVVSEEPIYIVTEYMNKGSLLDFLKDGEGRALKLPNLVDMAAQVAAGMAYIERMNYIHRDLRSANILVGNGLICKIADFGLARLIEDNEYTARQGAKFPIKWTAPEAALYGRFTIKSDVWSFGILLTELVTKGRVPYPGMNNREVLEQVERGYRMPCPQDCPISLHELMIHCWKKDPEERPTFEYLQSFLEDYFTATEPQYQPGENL
# Assay: as above
row,Sequence,phosphorylation enrichment
1,GGGGSYNNFGN [HNRNPA1_Y312_D314N],0.388
2,YTHSDYQYSQR [PKP2_Y166],0.403
3,MPLTKYLKRIK [CNGB3_Y200_E199K],0.377
4,KVGPGSLGSGG [RET_Y826_Y826S],0.352
5,CNPLCYPTIMI [OR6K6_Y160_R159C],0.408
6,ATHRGYDLDNP [MMUT_Y146_S148L],0.392
7,RQSHNYLGGFA [SYK_Y47_R45H],0.464
8,NGQAVYAACQT [XDH_Y1092],4.76
9,HSGLAYTMERS [GLUD1_Y512],0.685
10,LEFGDCHPLKP [VPS35L_Y32_Y32C],0.841
11,LSSNLYFRWLT [CNGA3_Y168_P163L_YF],0.595
12,RLTEGYTGPFK [ZNF862_Y181_I178T],0.473
13,ILTYKYLQKPM [KIT_Y547],0.41
14,EREYKYGAHNY [OAT_Y50],0.445
15,FRPHLYGTPSR [ADGRE2_Y670_S665F],0.546
16,DAICYYRMENA [NPHS2_Y195],1.34
17,VRFMANTDETF [F8_Y450_Y450N],0.408

row,Sequence,phosphorylation enrichment
1,ALDHKYHGGGG [HBB_Y146_A143D],0.375
2,TLKVGYTEKQR [EPHA3_Y659],0.27
3,PGVDRYSLGTS [C5orf42_Y1451],0.702
4,HGVSSYDTVIS [LDLR_Y465],0.818
5,QRCYVYYYSYL [PTEN_Y176_R173C],1.44
6,HQKKPYCHTHN [NRAP_Y53_A56T],1.04
7,INVTIYGKTFR [EFHC1_Y177_I174V],0.547
8,RRAKGYPIDLY [ITGB2_Y125],0.787
9,RKELFYKADGE [SERPINC1_Y272],0.519
10,KDGNGYISAAE [CALM1_Y100],0.463
11,SRDDYYETIAM [NPY1R_Y347_D346Y],0.798
12,PSQRRNVFFFS [PTEN_Y174_Y174N_YF],0.924
13,ALRASYTPSPA [ESS2_Y418],0.332
14,PINLFYLMDLS [ITGB2_Y131_D128N_YF],0.653
15,MKGDFYCFLAE [YWHAG_Y131_R132C_YF],0.456
16,TSPKSCPSQKH [CAP2_Y316_Y316C],0.461
